Test results from patent publication US12060433B2, “CD73 inhibitor and A2A/A2B adenosine receptor inhibitor combination therapy” (Incyte Corporation, priority 2020, dated 2024).

How the values were obtained:
[1] = target: T1, human CD73 (SEQ ID NO: 70) (Homo sapiens, UniProt P21589); experiment: SPR (Biacore 8K) binding affinity and kinetics to human CD73
T1 construct: purchased BPS Bioscience
T1 sequence (P21589 27-549): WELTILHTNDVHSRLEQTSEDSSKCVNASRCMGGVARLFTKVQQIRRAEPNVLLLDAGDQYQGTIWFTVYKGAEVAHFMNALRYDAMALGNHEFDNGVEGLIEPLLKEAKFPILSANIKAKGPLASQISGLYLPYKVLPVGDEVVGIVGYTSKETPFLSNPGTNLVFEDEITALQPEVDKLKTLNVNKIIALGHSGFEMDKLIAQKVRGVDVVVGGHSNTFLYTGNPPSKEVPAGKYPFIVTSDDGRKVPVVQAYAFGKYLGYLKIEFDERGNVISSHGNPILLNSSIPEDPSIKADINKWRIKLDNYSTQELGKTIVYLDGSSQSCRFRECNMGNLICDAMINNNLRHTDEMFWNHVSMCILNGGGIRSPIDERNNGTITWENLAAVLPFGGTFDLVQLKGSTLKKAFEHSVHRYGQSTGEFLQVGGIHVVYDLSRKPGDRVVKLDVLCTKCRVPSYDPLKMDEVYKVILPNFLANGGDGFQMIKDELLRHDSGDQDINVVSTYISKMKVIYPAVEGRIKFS
Experimental: The SPR running buffer (10 mM HEPES, 150 mM NaCl, 3 mM EDTA and 0.05% v/v Surfactant P20, pH 7.4) was prepared from 10×HBS-EP Buffer (GE Healthcare). Anti-human Fc antibodies (GE Healthcare) were immobilized via amine coupling on all sixteen flow cells of an S series sensor chip CM5 (GE Healthcare). The immobilization levels were ˜9000 RU for all flow cells. The desired capturing level of anti-CD73 antibody was achieved by flowing appropriate concentration of anti-CD73 antibody through the active flow cell of each channel. The non-cleavable ADP analogue APCP (adenosine-5′-(α,β-methylene) diphosphate) with the presence of Zn^2+ can be used to shift the CD73 conformational equilibrium from open towards closed. Therefore, recombinant CD73 was incubated with SPR running buffer in the presence of 100 μM APCP and 10 μM ZnCl2 (closed SPR running buffer) to study the binding of anti-CD73 antibody to the CD73 in the closed conformation. To achieve this, the ABA injection feature in Biacore 8K was used. For open conformation, the ABA injection sequence started with 60 seconds injection of running buffer. Then, CD73 3-fold serial dilution concentration series prepared from CD73 stock (BPS Bioscience) and running buffer were injected for 180 seconds immediately followed by running buffer for 240 seconds. For closed conformation, the normal SPR running buffer was replaced by closed SPR running buffer. Surface was regenerated with 30 seconds injection of 3 M MgCl2. […] Binding affinities and kinetic association and dissociation rate constants to human, cynomolgus, and mouse CD73 in either open or closed conformations are shown in Table 8 below. The results in Table 8 ensure cynomolgus pharmacokinetic data will reflect human pharmacokinetic data.
Binding affinities and kinetic association and dissociation rate constants to human, cynomolgus, and mouse CD73 in either open or closed conformations are shown in Table 9 below.

[2] = target: T2, CD73 on the cell surface of MDA-MB-231 cells (Homo sapiens, UniProt P21589); experiment: CD73 cell surface levels after 24 hour antibody treatment; assay type: cell-based; conditions: 10 μg/mL antibody
T2 construct: endogenous in cells; host or cells: MDA-MB-231
T2 sequence (P21589 27-549): T1 sequence (P21589 27-549)
Experimental: Indicated antibodies were added at a final concentration of 10 μg/mL and plates were incubated at 37° C. 5% CO2 for 24 hours. Cells were recovered using Versene and transferred to new 96-well plates. Cells were washed and stained for 30 minutes on ice with 10 μg/mL of non-competing antibody directly conjugated to Dy650. Cells were washed and analyzed by flow cytometry. CD73 cell surface receptor density was determined by Antibody Binding Capacity (ABC) using Quantum Simply Cellular beads.

human CD73 = target: T3, human CD73 (Homo sapiens, UniProt P21589); experiment: Epitope mapping by hydrogen-deuterium exchange mass spectrometry (HDX); conditions: Fab in complex with CD73
T3 sequence (P21589 27-549 limits assumed): T1 sequence (P21589 27-549)
Experimental: To map the epitope of CL25, Hydrogen-deuterium exchange mass spectrometry (HDX) was performed. CD73 was incubated in deuterium oxide either alone or in complex with CL25 Fab. The deuterium exchange was carried out at 20° C. for 0 seconds, 60 seconds, 600 seconds, or 3600 seconds. The exchange reaction was quenched by low pH and the proteins were digested with pepsin/protease VIII. The deuterium levels at the identified peptides were monitored from the mass shift on LC-MS. The deuterium buildup curves over exchange time for all the peptides were plotted vs time. Peptides with significant reduction in deuterium uptakes upon binding to Fab were assigned as the epitopes for each antibody.

[3] = target: T4, recombinant human CD73 (rhuCD73) (SEQ ID NO:70) (Homo sapiens, UniProt P21589); experiment: Soluble CD73 inhibition (AMP-Glo); assay type: biochemical; conditions: 0.008 μg/mL rhuCD73, 100 μM AMP
T4 sequence (P21589 27-549): T1 sequence (P21589 27-549)
Experimental: To measure the ability of the CD73 antibodies to inhibit CD73 activity of recombinant protein, recombinant human CD73 (rhuCD73) (SEQ ID NO:70) was added to 96-well plates at a final concentration of 0.008 μg/mL with the indicated concentration of antibodies (FIG. 4) or adenosine 5′-[α,β-methylene]diphosphate (APCP) and incubated at 37° C. 5% CO2 for 30 minutes. After the 30 minute incubation, AMP was added to a final concentration of 100 μM and the reactions were incubated an additional 3 hours at 37° C. 5% CO2. 25 μL of supernatant was transferred into new 96-well plates. The AMP-Glo Assay was used according to the manufacturer's instructions. RLU is a directly correlated with the AMP concentration in this assay. Results are depicted in FIG. 4.
Results are depicted in FIG. 9.

[4] = target: T5, cellular CD73 on MDA-MB-231 cells (Homo sapiens, UniProt P21589); experiment: Cellular CD73 inhibition (AMP-Glo), MDA-MB-231 cells; assay type: cell-based; conditions: 100 μM AMP, 3 hours
T5 construct: endogenous in cells; host or cells: MDA-MB-231
T5 sequence (P21589 27-549): T1 sequence (P21589 27-549)
Experimental: To measure ability of anti-CD73 antibody to inhibit CD73 activity on cells, A375 and MDA-MB-231 cells were washed with serum free RPMI media (ThermoFisher) and plated in 96-well plates at a concentration of 8×10^4 cells/well for A375 or 1×10^4 cells/well for MDA-MB-231. The cells were incubated with the indicated concentration of antibodies or APCP at 37° C. 5% C02 for 30 minutes (FIG. 3A, FIG. 3B, and FIG. 3C). Next, adenosine monophosphate (AMP) was added to a final concentration of 100 μM and cells were incubated an additional 3 hours at 37° C. 5% CO2. Plates were centrifuged for 1-2 minutes at 300 g and 25 μL of supernatant was transferred into a new 96-well plates. AMP-Glo Assay was used according to the manufacturer's instructions (Promega). Relative luminescence unit (RLU) is directly correlated with the AMP concentration in this assay. Results are depicted in FIG. 3A, FIG. 3B, and FIG. 3C. […] Results are depicted in FIG. 8A and FIG. 8B. […] Cells were incubated with the indicated concentration of antibodies or APCP at 37° C. 5% CO2 for 30 minutes. Next, AMP was added to a final concentration of 100 μM and cells were incubated an additional 3 hours at 37° C. 5% CO2. Plates were centrifuged for 1-2 minutes at 300 g and 25 μL of supernatant was transferred into a new 96-well plates. AMP-Glo Assay was used according to the manufacturer's instructions. […]

[5] = human CD73, closed conformation (100 μM APCP, 10 μM ZnCl2)
[6] = human CD73, open conformation, 25° C.

B1: CL25: chimeric anti-human CD73 monoclonal antibody, murine VH SEQ ID NO:26 and VL SEQ ID NO:27 with human IgG1 Fc (antibody, V domains shown)
VH: QVQLQQSGAELARPGASVKLSCRASGYTFTSYGLSWVKQRTGQGLEWIGEIYPGSGNTYYNEKFKGKATLTADKSSSTAYMELRSLTSEDSAVYFCARYDYLGSSYGFDYWGQGTTLTVSS
VL: DIVMTQSHKFMSTSVGDRVSITCKASQDVSTAVAWYQQKPGQSPKLLIYSASYRYNGVPDRFTGSGSGTDFTFTISSVQAEDLAVYYCQQHYNTPYTFGGGTKLEIK
modifications: human IgG1 Fc constant regions without entry
Question: For B1, which ka [1, 5] is on record?
Answer: The ka was 903000 M⁻¹ s⁻¹.

Question: What about the kd [1, 5] of the same molecule?
Answer: The kd was 0.000344 s⁻¹.

Question: And the ka [1, 6]?
Answer: Its ka is >1e+06 M⁻¹ s⁻¹.

Question: What about the kd [1, 6] of the same molecule?
Answer: The kd was 0.000394 s⁻¹.

Question: What about the “level of CD73 on the cell surface” value [2] of the same molecule?
Answer: Its value is “decreased the levels of cell surface CD73”.

Question: What about the “epitope determined by HDX-MS” value (human CD73) of the same molecule?
Answer: Its value is “TKVQQIRRAEPNVL”.

Question: And the “hook-effect in inhibition of recombinant CD73” value [3]?
Answer: Its value is “no hook-effect”.

Question: And the “inhibition of recombinant CD73” value [3]?
Answer: The value was “high potency”.

Question: And the “cellular CD73 inhibition” value [4]?
Answer: Its value is “good potency”.
